Reference: article PMC11538452

Molecular target: A9 anti-CD40 antibody, deimmunized variant
Assay: SPR; wildtype against deimmunized variant on the CD40 protein (Supplementary Fig. 3B); format of this experiment not told in what was shown

Chain of human CD40-Fc (P25942 21-193): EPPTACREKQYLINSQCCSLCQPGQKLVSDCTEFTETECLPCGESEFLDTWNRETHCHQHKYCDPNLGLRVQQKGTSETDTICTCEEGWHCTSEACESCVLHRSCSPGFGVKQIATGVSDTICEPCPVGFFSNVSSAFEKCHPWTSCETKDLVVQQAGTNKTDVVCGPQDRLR

Kd: 1.6 nM
Substance: human CD40-Fc (from UniProt P25942 21-193) (Fc fusion)
